One data set addresses T1, pUL53 (50-292) (human cytomegalovirus (HCMV) strain …, UniProt P16794 50-292).
T1 sequence: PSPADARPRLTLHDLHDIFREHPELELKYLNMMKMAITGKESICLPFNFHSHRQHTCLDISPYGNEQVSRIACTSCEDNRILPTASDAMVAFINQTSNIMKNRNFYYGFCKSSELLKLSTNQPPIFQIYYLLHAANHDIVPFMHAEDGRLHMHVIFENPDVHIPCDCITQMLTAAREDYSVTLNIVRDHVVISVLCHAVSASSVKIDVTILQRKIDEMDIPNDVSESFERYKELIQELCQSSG
Put plainly: analytical size exclusion chromatography, coproduced in E. coli and also mixed in vitro.

Data set [1] concerns the molecule itself. Briefly: analytical size exclusion chromatography (Superdex 75 10/300).
Data set [2] addresses T2, VZV Orf24, C-terminally fused to the HA epitope (pcDNA-Orf24-HA, pHM4695) (varicella zoster virus (VZV) strain …, UniProt P09280 1-269).
T2 sequence: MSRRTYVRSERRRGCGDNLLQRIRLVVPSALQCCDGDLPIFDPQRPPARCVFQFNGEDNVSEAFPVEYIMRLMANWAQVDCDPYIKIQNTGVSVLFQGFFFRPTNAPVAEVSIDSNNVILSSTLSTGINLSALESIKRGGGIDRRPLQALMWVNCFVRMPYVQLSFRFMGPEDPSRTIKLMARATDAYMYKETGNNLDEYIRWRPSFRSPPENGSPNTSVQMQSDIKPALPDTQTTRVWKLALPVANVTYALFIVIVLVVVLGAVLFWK
Put plainly: coimmunoprecipitation, transiently transfected 293T cells.

For data set [3], the target named is T3, HCMV pUL50, C-terminally fused to the HA epitope (pcDNA-UL50-HA, pHM2589) (human cytomegalovirus (HCMV) strain …, UniProt P16791 1-397).
T3 sequence: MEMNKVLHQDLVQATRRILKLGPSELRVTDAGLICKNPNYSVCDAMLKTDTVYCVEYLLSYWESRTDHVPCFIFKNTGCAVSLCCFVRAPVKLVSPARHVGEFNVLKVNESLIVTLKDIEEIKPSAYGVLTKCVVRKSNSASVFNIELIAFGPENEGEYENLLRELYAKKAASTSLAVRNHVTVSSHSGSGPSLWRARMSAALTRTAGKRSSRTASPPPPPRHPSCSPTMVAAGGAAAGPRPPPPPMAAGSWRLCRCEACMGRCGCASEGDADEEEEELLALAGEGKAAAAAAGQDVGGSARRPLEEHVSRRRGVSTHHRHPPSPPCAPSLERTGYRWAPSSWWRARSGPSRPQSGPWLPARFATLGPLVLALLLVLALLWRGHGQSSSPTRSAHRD
Described as above.

Data set [4] deals with T4, EBV BFLF2, C-terminally fused to the Flag epitope (pcDNA-BFLF2-Flag, pHM4698) (Epstein-Barr virus (EBV) strain B95-8, UniProt P0CK47 1-318).
T4 construct: also called Flag-tagged BFLF2
T4 sequence: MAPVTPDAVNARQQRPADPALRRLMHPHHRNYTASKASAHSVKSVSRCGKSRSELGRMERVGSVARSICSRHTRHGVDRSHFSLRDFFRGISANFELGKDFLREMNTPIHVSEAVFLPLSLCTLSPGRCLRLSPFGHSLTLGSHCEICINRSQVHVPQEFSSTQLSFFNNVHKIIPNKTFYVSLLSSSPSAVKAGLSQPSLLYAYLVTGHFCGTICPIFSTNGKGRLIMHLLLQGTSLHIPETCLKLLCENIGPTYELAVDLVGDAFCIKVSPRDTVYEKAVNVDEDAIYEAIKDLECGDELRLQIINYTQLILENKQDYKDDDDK
Described as above.

B1: pUL50 (1-181) (other)
chain: MEMNKVLHQDLVQATRRILKLGPSELRVTDAGLICKNPNYSVCDAMLKTDTVYCVEYLLSYWESRTDHVPCFIFKNTGCAVSLCCFVRAPVKLVSPARHVGEFNVLKVNESLIVTLKDIEEIKPSAYGVLTKCVVRKSNSASVFNIELIAFGPENEGEYENLLRELYAKKAASTSLAVRNH
Consider B1, for which the binding result is recorded as “binds” in the data set with pUL53 (50-292) and “no binding” in data set [1].

B2: MCMV pM53, C-terminally fused to the Flag epitope (pcDNA-M53-Flag, pHM4718) (other)
chain: MFRSPEGEERDAADREEEEGGEARRRSRMMMSPRRVKRARHRPAGSGLRTPLRSPSACRCSSPSPERQWQQRRRAEKRSTTPTDPPPPPKRSAASAAAGAAAPESEYLNVKLSELHDVFQRHPDLEQKYLKIMKLPITGKESIRLPFDFKSHRQHTCLDLSPYGNDQVSRSACTTCKETTRLPTASDSMVAFINQTSNVMKHRKFYFGFRKNMELLKMAANQPQLFQIYYIVQSCVQEIVPLIYYDREMAHMQLIFEKETVHIPSQCIEQILTVAKDAYGVSLDIAHQRITLTARCLRLESSSLRIDVLMLQRKVDELEIPNETNEKFESYSLDYKDDDDK
notes: also called pM53-Flag; Flag-tagged pM53
Consider B2, for which the binding result is given as “no binding” in data set [2] and “binds” in data set [3].

B3: MCMV pM50, C-terminally fused to the HA epitope (pcDNA-M50-HA, pHM4717) (other)
chain: MEIDKNVGADLISNTRRILRLDENELRITDTALICKNPNYSLCDAMLTTDIVYPVEYLLSYWECRSGRTACFVFKNTGCRVSLSCYIGFPERLKDLKRVCDFNFLSVNEALVVTLADIERIKPCDKGVLTNCVVRKSNSGMSYNIEVVAFGPDNEAEYQALLRDIYARRMTSVPTDCGSLICRRARCLAAAPPRRPPPPPPPGQRWGSLRKHGPVLTRRYAGGGGAAKNQPAAASPTSTSTSSPAAPSRDQDQTQRPPPAGDTNVTAAETTYSERTISFLTRHANAIHCALILAAAIALVLLWLLYWHAARSAGHP
notes: also called pM50-HA; HA-tagged pM50
For B3, the binding result in data set [4] is reported as “no binding”.

These data come from patent publication US20210396761A1 (AICURIS, published 2021).
